# B1: FLAG-CFAP418 (natural protein)
# chain: MAKDLDELLDEVETKFCRLDPLRLDLGERPKGDGGGGSHSGDRNGAQEKETLRSTETFKKEDDLDSLINEIFEEPDFDRKSFQKFKSKSSSNTCVRAPMQGVSKSCSPVYLSGSAIPCGIGTNTSQRACDRLRCVACDFRIVSYNDYMWDKSCDYLFFRNNMPEFHKLKTKLIEKKGARAYACQCSWRTVEELTDLQTDHQLRWVCGKH
# notes: CFAP418; source: HEK293, cotransfected, in lysate
# Biological target: mCherry-RAB28 WT (UniProt Q99KL7 1-221)
# Assay: co-IP; HEK293 cells cotransfected with FLAG-CFAP418 and mCherry-RAB28 WT, T26N, Q72L or mCherry; mCherry proteins 'pulled down', FLAG-CFAP418 seen only in the overexposed immunoblot
# Conditions: partners not purified
binder,measurement,value
B1,fraction of CFAP418 pulled down,~0.1%

# From article PMC10906455, “Disruption of CFAP418 interaction with lipids causes widespread abnormal membrane-associated cellular processes in retinal degenerations” (JCI Insight, 2024)
